Measurements from patent US9206242B2, “Application of actin-binding protein to disease associated with cell motility” (NATIONAL UNIVERSITY CORPORATION NAGOYA UNIVERSITY, priority 2005, dated 2015).
Each block holds one molecule with its values, some of them ahead of it.

Assays:
[1] = tested on: phosphorylation of Girdin; experiment: EGF-induced phosphorylation of endogenous Girdin in COS7 cells (immunoprecipitation, Western blot with anti-P-Girdin antibody); type: cell-based; details: EGF 50 ng/ml 15 min, PD98059 50 μM
Experimental: Immunoprecipitates with anti-Girdin antibody were subjected to Western blot analyses with anti-P-Girdin and anti-Girdin antibodies. Activation of Akt was monitored by Western blot analyses with anti-phospho Akt antibody.
COS7 cells were transfected with either control or Akt siRNAs, and incubated for 48 hrs. Cells were then stimulated with EGF for 30 min and the phosphorylation of Girdin was analyzed as described in FIG. 2e.
Next, whether the anti-P-Girdin Ab can detect the endogenous Girdin phosphorylated in response to external stimuli that physiologically activate endogenous Akt was given consideration to. […] Furthermore, the phosphorylation of Girdin was inhibited when cells were treated with the PI3K inhibitors LY294002 and Wortmannin, but not with the mitogen-activated protein kinase kinase 1 (MEK1) inhibitor PD98059. It has therefore been concluded that the phosphorylation of Girdin is induced by EGF in a PI3K-dependent manner. […] Moreover, Girdin phosphorylation was undetectable in the cells transfected with Akt small interfering RNA (Akt siRNA). These findings confirmed that Akt activation is necessary for Girdin phosphorylation.

F-actin = F-actin cosedimentation assay; type: binding
Experimental: A fixed amount of GST-CT2 was mixed with various amounts of F-actin, followed by ultracentrifugation. Amounts of the free and bound GST-CT2 were quantified, and the percentage of bound GST-CT2 was plotted against the concentration of F-actin, and the Kd value was calculated by Scatchard analysis.
GST-CT was phosphorylated by Akt in vitro (cf. FIG. 6d, (b)) and was subjected to an actin cosedimentation assay. A fixed amount of GST-CT was phosphorylated in vitro and mixed with various amounts of F-actin, followed by ultracentrifugation. The amount of phosphorylated GST-CT bound to F-actin in the pellet fraction was monitored by Western blot analyses with anti-P-Girdin antibody.
F-actin cosedimentation assays were performed according to the manufacturer's protocol (Cytoskeleton). […] The cosedimented proteins were resolved by SDS-PAGE and detected by either Coomassie Brilliant Blue (CBB) staining or Western blot analyses using anti-GST antibody (Cell Signaling Technology) or anti-phospho Girdin Ab. For quantitative analyses, a fixed concentration of GST-Girdin CT2 (1 μM) was mixed with increasing amounts of F-actin (0-2.5 μM) in polymerization buffer and incubated at room temperature for 30 min. […] Protein bands were detected by CBB staining, and scanned and quantified using the software program WinROOF (Mitani Corp., Fukui, Japan).

[2] = Protein-lipid overlay assay (PIP-Strip), PI(3)P; type: binding; details: 4° C.
Experimental: (§1) The lipid binding of both GST-CT and GST-CT ΔPB was detected using anti-Girdin antibody, whereas that of phosphorylated GST-CT was detected by anti-P-Girdin antibody. The various lipids spotted on the membrane are indicated in (d).
(§2) GST fusion proteins were expressed in DH5 ? or BL21-CodonPlus (Stratagene) cells and purified using conventional methods. Binding of the purified GST-CT to phospholipids was examined at 4° C. using a PIP-Strip (Echelon Bioscience) according to the manufacturer's protocol. Bound GST-CT proteins were detected with either anti-Girdin or anti-phospho Girdin antibodies.

[3] = Protein-lipid overlay assay (PIP-Strip), PI(4)P; type: binding; details: 4° C.
Experimental: as §1, §2

Molecule: COc1cccc(-c2cc(=O)c3ccccc3o2)c1N [PD98059]
phosphorylation of Girdin [1]: not

binding to PI(3)P [2]: bound to neither | binding to PI(4)P [3]: bound to neither
B1: phosphorylated GST-CT: purified GST-CT phosphorylated by Akt in vitro (protein)
chain: IMDQYKFYDPSPPRRRGNWITLKMRKLIKSKKDINRERQKSLTLTPTRSDSSEGFLQLPHQDSQDSSSVGSNSLEDGQTLGTKKSSMVALKRLPFLRNRPKDKDKMKACYRRSMSMNDLVQSMVLAGQWTGSTENLEVPDDISTGKRRKELGAMAFSTTAINFSTVNSSAGFRSKQLVNNKDTTSFEDISPQGVSDDSSTGSRVHASRPASLDSGRTSTSNSNNNASLHEVKAGAVNNQSRPQSHSSGEFSLLHDHEAWSSSGSSPIQYLKRQTRSSPVLQHKISETLESRHHKIKTGSPGSEVVTLQQFLEESNKLTSVQIKSSSQENLLDEVMKSLSVSSDFLGKDKPVSCGLARSVSGKTPGDFYDRRTTKPEFLRPGPRKTEDTYFISSAGKPTPGTQGKIKLVKESSLSRQSKDSNPYATLPRASSVISTAEGTTRRTSIHDFLTKDSRLPISVDSPPAAADSNTTAASNVDKVQESRNSKSRSREQQSS
modifications: left off: a dimerising Fc or GST
notes: purified GST-CT phosphorylated by Akt in vitro
affinity for F-actin after phosphorylation by Akt (F-actin; GST-CT phosphorylated in vitro, detected with anti-P-Girdin antibody): did not attenuate

Kd (F-actin; GST-CT2 1 μM, F-actin 0-2.5 μM, Scatchard analysis, read-out: dissociation constant (Kd) for F-actin): 1030 nM
B2: GST-CT2: purified glutathione S-transferase (GST)-fused CT2, C-terminal half of the Girdin CT domain (protein)
chain: GEFSLLHDHEAWSSSGSSPIQYLKRQTRSSPVLQHKISETLESRHHKIKTGSPGSEVVTLQQFLEESNKLTSVQIKSSSQENLLDEVMKSLSVSSDFLGKDKPVSCGLARSVSGKTPGDFYDRRTTKPEFLRPGPRKTEDTYFISSAGKPTPGTQGKIKLVKESSLSRQSKDSNPYATLPRASSVISTAEGTTRRTSIHDFLTKDSRLPISVDSPPAAADSNTTAASNVDKVQESRNSKSRSREQQSS
modifications: left off: a dimerising Fc or GST
notes: purified glutathione S-transferase (GST)-fused CT2, C-terminal half of the Girdin CT domain
